B1: Mucosa-associated lymphoid tissue lymphoma translocation protein 1 (Homo sapiens), Q9UDY8 (parent)
chain: MSLLGDPLQALPPSAAPTGPLLAPPAGATLNRLREPLLRRLSELLDQAPEGRGWRRLAELAGSRGRLRLSCLDLEQCSLKVLEPEGSPSLCLLKLMGEKGCTVTELSDFLQAMEHTEVLQLLSPPGIKITVNPESKAVLAGQFVKLCCRATGHPFVQYQWFKMNKEIPNGNTSELIFNAVHVKDAGFYVCRVNNNFTFEFSQWSQLDVCDIPESFQRSVDGVSESKLQICVEPTSQKLMPGSTLVLQCVAVGSPIPHYQWFKNELPLTHETKKLYMVPYVDLEHQGTYWCHVYNDRDSQDSKKVEIIIGRTDEAVECTEDELNNLGHPDNKEQTTDQPLAKDKVALLIGNMNYREHPKLKAPLVDVYELTNLLRQLDFKVVSLLDLTEYEMRNAVDEFLLLLDKGVYGLLYYAGHGYENFGNSFMVPVDAPNPYRSENCLCVQNILKLMQEKETGLNVFLLDMCRKRNDYDDTIPILDALKVTANIVFGYATCQGAEAFEIQHSGLANGIFMKFLKDRLLEDKKITVLLDEVAEDMGKCHLTKGKQALEIRSSLSEKRALTDPIQGTEYSAESLVRNLQWAKAHELPESMCLKFDCGVQIQLGFAAEFSNVMIIYTSIVYKPPEIIMCDAYVTDFPLDLDIDPKDANKGTPEETGSYLVSKDLPKHCLYTRLSSLQKLKEHLVFTVCLSYQYSGLEDTVEDKQEVNVGKPLIAKLDMHRGLGRKTCFQTCLMSNGPYQSSAATSGGAGHYHSLQDPFHGVYHSHPGNPSNVTPADSCHCSRTPDAFISSFAHHASCHFSRSNVPVETTDEIPFSFSDRLRISEK

Variants of: B1
Conditions: with ubc_human UBC

| effect of a mutation on the interaction | Variant |
| --- | --- |
| disrupting interaction | K644R;K648R;K661R;K665R;K677R;K679R;K702R;K709R;K714R;K724R;K824R |

From IntAct's records for PubMed 17948050
